Laboratory results reported in IntAct's records for PubMed 28424519.

B1: Transcription regulatory protein SNF2 (Saccharomyces cerevisiae), P22082 (parent)
chain: MNIPQRQFSNEEVNRCYLRWQHLRNEHGMNAPSVPEFIYLTKVLQFAAKQRQELQMQRQQQGISGSQQNIVPNSSDQAELPNNASSHISASASPHLAPNMQLNGNETFSTSAHQSPIMQTQMPLNSNGGNNMLPQRQSSVGSLNATNFSPTPANNGENAAEKPDNSNHNNLNLNNSELQPQNRSLQEHNIQDSNVMPGSQINSPMPQQAQMQQAQFQAQQAQQAQQAQQAQQAQARLQQGRRLPMTMFTAEQSELLKAQITSLKCLVNRKPIPFEFQAVIQKSINHPPDFKRMLLSLSEFARRRQPTDQNNQSNLNGGNNTQQPGTNSHYNNTNTDNVSGLTRNAPLDSKDENFASVSPAGPSSVHNAKNGTLDKNSQTVSGTPITQTESKKEENETISNVAKTAPNSNKTHTEQNNPPKPQKPVPLNVLQDQYKEGIKVVDIDDPDMMVDSFTMPNISHSNIDYQTLLANSDHAKFTIEPGVLPVGIDTHTATDIYQTLIALNLDTTVNDCLDKLLNDECTESTRENALYDYYALQLLPLQKAVRGHVLQFEWHQNSLLTNTHPNFLSKIRNINVQDALLTNQLYKNHELLKLERKKTEAVARLKSMNKSAINQYNRRQDKKNKRLKFGHRLIATHTNLERDEQKRAEKKAKERLQALKANDEEAYIKLLDQTKDTRITHLLRQTNAFLDSLTRAVKDQQKYTKEMIDSHIKEASEEVDDLSMVPKMKDEEYDDDDDNSNVDYYNVAHRIKEDIKKQPSILVGGTLKDYQIKGLQWMVSLFNNHLNGILADEMGLGKTIQTISLLTYLYEMKNIRGPYLVIVPLSTLSNWSSEFAKWAPTLRTISFKGSPNERKAKQAKIRAGEFDVVLTTFEYIIKERALLSKVKWVHMIIDEGHRMKNAQSKLSLTLNTHYHADYRLILTGTPLQNNLPELWALLNFVLPKIFNSVKSFDEWFNTPFANTGGQDKIELSEEETLLVIRRLHKVLRPFLLRRLKKDVEKELPDKVEKVVKCKMSALQQIMYQQMLKYRRLFIGDQNNKKMVGLRGFNNQIMQLKKICNHPFVFEEVEDQINPTRETNDDIWRVAGKFELLDRILPKLKATGHRVLIFFQMTQIMDIMEDFLRYINIKYLRLDGHTKSDERSELLRLFNAPDSEYLCFILSTRAGGLGLNLQTADTVIIFDTDWNPHQDLQAQDRAHRIGQKNEVRILRLITTNSVEEVILERAYKKLDIDGKVIQAGKFDNKSTSEEQEALLRSLLDAEEERRKKRESGVEEEEELKDSEINEILARNDEEMAVLTRMDEDRSKKEEELGVKSRLLEKSELPDIYSRDIGAELKREESESAAVYNGRGARERKTATYNDNMSEEQWLRQFEVSDDEKNDKQARKQRTKKEDKSEAIDGNGEIKGENIDADNDGPRINNISAEDRADTDLAMNDDDFLSKKRKAGRPRGRPKKVKLEGSENSEPPALESSPVTGDNSPSEDFMDIPKPRTAGKTSVKSARTSTRGRGRGRGRGRGRGRGRGRPPKARNGLDYVRTPAAATSPIDIREKVAKQALDLYHFALNYENEAGRKLSDIFLSKPSKALYPDYYMIIKYPVAFDNINTHIETLAYNSLKETLQDFHLIFSNARIYNTEGSVVYEDSLELEKVVTKKYCEIMGDNSQLDFTEFDEQYGTRPLVLPPVVTSSVAESFTDEADSSMTEASV

Variants of: B1
Conditions: with h4_yeast HHF1, P02309

| Variant | effect of a mutation on the interaction |
| --- | --- |
| E1069K;D1121K | disrupting interaction |
